Target: pig asialo-thyroglobulin (pig) (UniProt F1RRV3)
Experiment: cell-based or functional assay

Chain of UniProt F1RRV3 (F1RRV3 20-2692 limits assumed): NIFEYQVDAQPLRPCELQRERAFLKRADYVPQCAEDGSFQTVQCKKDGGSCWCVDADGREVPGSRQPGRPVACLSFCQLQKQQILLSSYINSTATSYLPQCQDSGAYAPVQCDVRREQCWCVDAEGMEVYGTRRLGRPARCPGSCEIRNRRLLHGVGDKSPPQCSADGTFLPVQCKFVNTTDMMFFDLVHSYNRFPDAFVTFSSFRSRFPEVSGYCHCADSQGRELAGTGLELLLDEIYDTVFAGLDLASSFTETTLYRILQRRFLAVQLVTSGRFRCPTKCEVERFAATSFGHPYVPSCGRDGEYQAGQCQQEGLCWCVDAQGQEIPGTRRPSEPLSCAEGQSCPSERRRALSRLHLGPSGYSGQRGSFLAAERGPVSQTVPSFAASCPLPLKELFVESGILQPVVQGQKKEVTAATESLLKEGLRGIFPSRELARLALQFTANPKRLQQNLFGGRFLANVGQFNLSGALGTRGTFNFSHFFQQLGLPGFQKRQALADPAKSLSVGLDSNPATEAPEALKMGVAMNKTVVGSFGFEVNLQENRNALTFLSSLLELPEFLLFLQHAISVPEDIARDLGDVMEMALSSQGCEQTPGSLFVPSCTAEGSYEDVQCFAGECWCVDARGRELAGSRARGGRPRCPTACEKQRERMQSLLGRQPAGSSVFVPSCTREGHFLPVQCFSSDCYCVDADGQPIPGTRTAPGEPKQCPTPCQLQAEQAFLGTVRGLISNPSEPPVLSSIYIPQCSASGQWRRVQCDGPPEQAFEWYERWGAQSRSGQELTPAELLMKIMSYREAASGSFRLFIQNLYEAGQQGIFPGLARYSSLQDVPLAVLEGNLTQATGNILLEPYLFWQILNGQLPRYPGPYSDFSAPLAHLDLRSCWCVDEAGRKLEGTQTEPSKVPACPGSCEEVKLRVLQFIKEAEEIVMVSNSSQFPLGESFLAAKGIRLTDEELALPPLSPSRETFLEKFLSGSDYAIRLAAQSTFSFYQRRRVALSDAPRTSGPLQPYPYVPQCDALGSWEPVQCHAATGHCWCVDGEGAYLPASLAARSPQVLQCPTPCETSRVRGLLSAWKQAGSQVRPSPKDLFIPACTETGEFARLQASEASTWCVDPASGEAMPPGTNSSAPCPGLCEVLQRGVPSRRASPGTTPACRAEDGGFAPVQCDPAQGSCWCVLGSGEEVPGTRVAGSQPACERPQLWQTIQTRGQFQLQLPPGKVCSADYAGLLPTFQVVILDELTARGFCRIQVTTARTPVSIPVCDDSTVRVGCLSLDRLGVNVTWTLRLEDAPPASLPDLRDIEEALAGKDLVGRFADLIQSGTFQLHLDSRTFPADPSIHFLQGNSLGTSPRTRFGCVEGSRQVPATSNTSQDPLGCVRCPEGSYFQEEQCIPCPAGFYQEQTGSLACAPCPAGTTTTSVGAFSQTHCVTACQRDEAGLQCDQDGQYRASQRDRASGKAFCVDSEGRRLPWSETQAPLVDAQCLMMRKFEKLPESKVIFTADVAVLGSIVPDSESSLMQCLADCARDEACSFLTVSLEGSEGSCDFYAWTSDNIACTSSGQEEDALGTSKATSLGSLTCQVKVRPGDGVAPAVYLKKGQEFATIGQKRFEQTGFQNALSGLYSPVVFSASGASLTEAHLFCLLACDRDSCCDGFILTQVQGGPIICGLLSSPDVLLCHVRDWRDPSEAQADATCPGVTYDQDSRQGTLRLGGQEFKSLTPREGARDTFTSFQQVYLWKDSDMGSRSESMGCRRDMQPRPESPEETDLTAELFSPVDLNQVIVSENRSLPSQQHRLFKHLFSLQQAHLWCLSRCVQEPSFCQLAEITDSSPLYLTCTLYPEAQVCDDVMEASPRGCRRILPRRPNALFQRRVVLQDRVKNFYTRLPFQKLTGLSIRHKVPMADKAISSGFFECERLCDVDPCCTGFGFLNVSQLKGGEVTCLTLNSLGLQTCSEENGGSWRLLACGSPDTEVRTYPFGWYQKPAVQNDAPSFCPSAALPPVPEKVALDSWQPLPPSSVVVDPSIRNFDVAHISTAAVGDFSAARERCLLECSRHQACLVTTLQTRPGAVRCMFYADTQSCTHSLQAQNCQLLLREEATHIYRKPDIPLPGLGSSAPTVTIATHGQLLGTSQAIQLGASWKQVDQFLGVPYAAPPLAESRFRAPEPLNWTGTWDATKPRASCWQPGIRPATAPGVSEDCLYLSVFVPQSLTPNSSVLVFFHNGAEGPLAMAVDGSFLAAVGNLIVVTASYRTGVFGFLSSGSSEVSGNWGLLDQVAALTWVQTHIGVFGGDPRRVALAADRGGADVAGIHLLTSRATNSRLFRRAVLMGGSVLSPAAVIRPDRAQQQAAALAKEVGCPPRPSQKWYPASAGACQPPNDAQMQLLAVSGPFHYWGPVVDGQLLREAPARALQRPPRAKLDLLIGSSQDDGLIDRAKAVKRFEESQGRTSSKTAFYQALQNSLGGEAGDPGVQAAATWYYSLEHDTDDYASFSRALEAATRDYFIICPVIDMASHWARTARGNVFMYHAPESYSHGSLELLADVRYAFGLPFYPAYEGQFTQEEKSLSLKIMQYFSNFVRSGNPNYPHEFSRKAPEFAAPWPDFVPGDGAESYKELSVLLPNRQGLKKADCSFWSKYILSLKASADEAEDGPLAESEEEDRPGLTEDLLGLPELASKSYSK

inhibition of hemagglutination activity (trypsin-treated rabbit red blood cells): 31 µg/mL
Substance: CBA (Codium barbatum agglutinin), purified from Codium barbatum

— US20140087395A1
